Experiments:
rat FcεRI β chain = assay: Surface plasmon resonance, immobilized extracellular loop peptides of rat FcεRI β chain; details: SPR
human FcεRI β chain = assay: Surface plasmon resonance, immobilized extracellular loop peptides of human FcεRI β chain; details: SPR
RBL-2H3 cells = details: Erdei et al. 1995, 1999; cited from earlier work
[1] = test system: rat peritoneal mast cells (RPMC); assay: Secretory response (β-hexosaminidase release) of rat peritoneal mast cells; assay type: cell-based; details: non-sensitized cells, no antigen
Description: Rat peritoneal mast cells (RPMC) were isolated as previously described (Kim et al. J. Immunol. 162:4960-4965, […]). Mast cell preparations were ca. 95% pure, as evaluated by flow cytometric monitoring of FcεRI surface expression. Compound 48/80, a specific activator of serosal type mast cells elicited about 50% release of the total β-hexosaminidase content of the isolated rat peritoneal mast cells.
(§1) Secretory response of mast cells.
While mucosal type mast cells are non-responsive to peptidergic stimuli, the serosal type ones have been known for a long time to be stimulated by cationic secretagogues. The anaphylatoxic peptides C3a and C5a initiate the cells' secretory response by binding to their respective receptors expressed by serosal type mast cells. To investigate the effect of the peptides on this mast cell-type, RPMC were used. As expected, these cells did respond to both C5a and C3a (Table 2). However, degranulation was inhibited when peptides C3a7 or C3a9 were added to the IgE-sensitized RPMC and stimulated, 5 min later with a suboptimal antigen dose (Table 2).

[2] = test system: bone marrow derived mast cells (BMMC); assay: Secretory response (β-hexosaminidase release) of bone marrow derived mast cells; assay type: cell-based, mouse
Experimental: Cells. Bone marrow derived mast cells (BMMC) were prepared from Balb/c mice as described by Nagao et al. (Science 212: 333-335, 1981). After 3 weeks, an approximately 95% pure mast cell population was obtained, showing high expression of FcεRI and stem cell factor receptor (c-kit), as measured by flow cytometry.
as §1
Similar experiments were carried out using bone-marrow derived mast cells (BMMC). […] The control peptide of the sequence DVSNYITR had no effect on either system.

B1: C5a: complement activation product C5a, anaphylatoxic peptide, isolated; used as control (protein)
chain: TLQKKIEEIAAKYKHSVVKKCCYDGACVNNDETCEQRAARISLGPRCIKAFTECCVVASQLRANISHKDMQLGR
Rat FcεRI β chain
  Reaction with any tested sequences (1st and 2nd loop) of rat FcεRI β-chain: did not react
Human FcεRI β chain
  Reaction with any tested sequences (1st and 2nd loop) of human FcεRI β-chain: did not react
RBL-2H3 cells
  Inhibition of IgE-mediated degranulation of RBL-2H3 cells (literature): has no effect
[1]
  Stimulation of secretory response of RPMC by the peptide itself: did respond
[2]
  Inhibition of IgE-mediated secretory response of BMMC: had no effect
